Experimental data: patent publication US20180169257A1 (Seagen, published 2018)

T1: human NTB-A (human, UniProt Q96DU3 22-332)
T1 construct: Endogenous NTB-A on antigen-positive Ramos cells (also on MM.1R, WIL2-S and Raji cells and normal human T and B lymphocytes); also called SLAMF6; human NTB-A isoform-1
T1 sequence: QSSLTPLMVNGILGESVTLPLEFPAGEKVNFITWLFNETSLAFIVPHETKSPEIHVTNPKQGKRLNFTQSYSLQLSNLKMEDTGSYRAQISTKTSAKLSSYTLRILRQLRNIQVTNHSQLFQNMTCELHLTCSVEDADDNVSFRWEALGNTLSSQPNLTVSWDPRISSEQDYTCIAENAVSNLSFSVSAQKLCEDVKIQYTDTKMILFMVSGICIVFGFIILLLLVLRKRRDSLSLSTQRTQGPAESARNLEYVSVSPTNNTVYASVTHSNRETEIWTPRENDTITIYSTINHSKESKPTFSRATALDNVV

B1: humanized 20F3 HCLB (antibody, V domains shown)
VH: QIQLVQSGSELKKPGASVKVSCKASGYTFTNYGMNWVRQAPGQDLEWMGWINTYSGEPRYADDFKGRFVFSLDKSVNTAYLQISSLKAEDTAVYYCARDYGRWYFDVWGQGTTVTVSS
VL: EIVLTQSPATLSLSPGERATLSCRASSSVSHMHWYQQKPGQAPRPWIYATSNLASGIPARFSGSGSGTDYTLTISSLEPEDFAVYYCQQWSSTPRTFGGGTKVEIKR
notes: Humanized heavy chain HC paired with humanized light chain LB
B2: humanized 20F3 HALA (antibody, V domains shown)
VH: QVQLVQSGSELKKPGASVKVSCKASGYTFTNYGMNWVRQAPGQGLEWMGWINTYSGEPRYADDFKGRFVFSLDTSVSTAYLQISSLKAEDTAVYYCARDYGRWYFDVWGQGTTVTVSS
VL: EIVLTQSPATLSLSPGERATLSCRASSSVSHMHWYQQKPGQAPRLLIYATSNLASGIPARFSGSGSGTDFTLTISSLEPEDFAVYYCQQWSSTPRTFGGGTKVEIKR
notes: Humanized heavy chain HA paired with humanized light chain LA
B3: humanized 20F3 HALB (antibody, V domains shown)
VH: QVQLVQSGSELKKPGASVKVSCKASGYTFTNYGMNWVRQAPGQGLEWMGWINTYSGEPRYADDFKGRFVFSLDTSVSTAYLQISSLKAEDTAVYYCARDYGRWYFDVWGQGTTVTVSS
VL: EIVLTQSPATLSLSPGERATLSCRASSSVSHMHWYQQKPGQAPRPWIYATSNLASGIPARFSGSGSGTDYTLTISSLEPEDFAVYYCQQWSSTPRTFGGGTKVEIKR
notes: Humanized heavy chain HA paired with humanized light chain LB
B4: humanized 20F3 HALC (antibody, V domains shown)
VH: QVQLVQSGSELKKPGASVKVSCKASGYTFTNYGMNWVRQAPGQGLEWMGWINTYSGEPRYADDFKGRFVFSLDTSVSTAYLQISSLKAEDTAVYYCARDYGRWYFDVWGQGTTVTVSS
VL: QIVLSQSPATLSLSPGERATLSCRASSSVSHMHWYQQKPGQAPRPWIYATSNLASGIPARFSGSGSGTDYTLTISSLEPEDFAVYYCQQWSSTPRTFGGGTKVEIKR
notes: Humanized heavy chain HA paired with humanized light chain LC
B5: humanized 20F3 HALD (antibody, V domains shown)
VH: QVQLVQSGSELKKPGASVKVSCKASGYTFTNYGMNWVRQAPGQGLEWMGWINTYSGEPRYADDFKGRFVFSLDTSVSTAYLQISSLKAEDTAVYYCARDYGRWYFDVWGQGTTVTVSS
VL: QIVLSQSPATLSLSPGERATMSCRASSSVSHMHWYQQKPGQAPRPWIYATSNLASGVPARFSGSGSGTDYTLTISSLEPEDFAVYYCQQWSSTPRTFGGGTKVEIKR
notes: Humanized heavy chain HA paired with humanized light chain LD
B6: humanized 20F3 HBLA (antibody, V domains shown)
VH: QIQLVQSGSELKKPGASVKVSCKASGYTFTNYGMNWVRQAPGQGLEWMGWINTYSGEPRYADDFKGRFVFSLDKSVSTAYLQISSLKAEDTAVYYCARDYGRWYFDVWGQGTTVTVSS
VL: EIVLTQSPATLSLSPGERATLSCRASSSVSHMHWYQQKPGQAPRLLIYATSNLASGIPARFSGSGSGTDFTLTISSLEPEDFAVYYCQQWSSTPRTFGGGTKVEIKR
notes: Humanized heavy chain HB paired with humanized light chain LA
B7: humanized 20F3 HBLB (antibody, V domains shown)
VH: QIQLVQSGSELKKPGASVKVSCKASGYTFTNYGMNWVRQAPGQGLEWMGWINTYSGEPRYADDFKGRFVFSLDKSVSTAYLQISSLKAEDTAVYYCARDYGRWYFDVWGQGTTVTVSS
VL: EIVLTQSPATLSLSPGERATLSCRASSSVSHMHWYQQKPGQAPRPWIYATSNLASGIPARFSGSGSGTDYTLTISSLEPEDFAVYYCQQWSSTPRTFGGGTKVEIKR
notes: Humanized heavy chain HB paired with humanized light chain LB
B8: humanized 20F3 HBLC (antibody, V domains shown)
VH: QIQLVQSGSELKKPGASVKVSCKASGYTFTNYGMNWVRQAPGQGLEWMGWINTYSGEPRYADDFKGRFVFSLDKSVSTAYLQISSLKAEDTAVYYCARDYGRWYFDVWGQGTTVTVSS
VL: QIVLSQSPATLSLSPGERATLSCRASSSVSHMHWYQQKPGQAPRPWIYATSNLASGIPARFSGSGSGTDYTLTISSLEPEDFAVYYCQQWSSTPRTFGGGTKVEIKR
notes: Humanized heavy chain HB paired with humanized light chain LC
B9: humanized 20F3 HBLD (antibody, V domains shown)
VH: QIQLVQSGSELKKPGASVKVSCKASGYTFTNYGMNWVRQAPGQGLEWMGWINTYSGEPRYADDFKGRFVFSLDKSVSTAYLQISSLKAEDTAVYYCARDYGRWYFDVWGQGTTVTVSS
VL: QIVLSQSPATLSLSPGERATMSCRASSSVSHMHWYQQKPGQAPRPWIYATSNLASGVPARFSGSGSGTDYTLTISSLEPEDFAVYYCQQWSSTPRTFGGGTKVEIKR
notes: Humanized heavy chain HB paired with humanized light chain LD
B10: humanized 20F3 HCLA (antibody, V domains shown)
VH: QIQLVQSGSELKKPGASVKVSCKASGYTFTNYGMNWVRQAPGQDLEWMGWINTYSGEPRYADDFKGRFVFSLDKSVNTAYLQISSLKAEDTAVYYCARDYGRWYFDVWGQGTTVTVSS
VL: EIVLTQSPATLSLSPGERATLSCRASSSVSHMHWYQQKPGQAPRLLIYATSNLASGIPARFSGSGSGTDFTLTISSLEPEDFAVYYCQQWSSTPRTFGGGTKVEIKR
notes: Humanized heavy chain HC paired with humanized light chain LA
B11: humanized 20F3 HCLC (antibody, V domains shown)
VH: QIQLVQSGSELKKPGASVKVSCKASGYTFTNYGMNWVRQAPGQDLEWMGWINTYSGEPRYADDFKGRFVFSLDKSVNTAYLQISSLKAEDTAVYYCARDYGRWYFDVWGQGTTVTVSS
VL: QIVLSQSPATLSLSPGERATLSCRASSSVSHMHWYQQKPGQAPRPWIYATSNLASGIPARFSGSGSGTDYTLTISSLEPEDFAVYYCQQWSSTPRTFGGGTKVEIKR
notes: Humanized heavy chain HC paired with humanized light chain LC
B12: humanized 20F3 HCLD (antibody, V domains shown)
VH: QIQLVQSGSELKKPGASVKVSCKASGYTFTNYGMNWVRQAPGQDLEWMGWINTYSGEPRYADDFKGRFVFSLDKSVNTAYLQISSLKAEDTAVYYCARDYGRWYFDVWGQGTTVTVSS
VL: QIVLSQSPATLSLSPGERATMSCRASSSVSHMHWYQQKPGQAPRPWIYATSNLASGVPARFSGSGSGTDYTLTISSLEPEDFAVYYCQQWSSTPRTFGGGTKVEIKR
notes: Humanized heavy chain HC paired with humanized light chain LD
B13: humanized 20F3 HDLA (antibody, V domains shown)
VH: QIQLVQSGSELKKPGASVKVSCKASGYTFTNYGMNWVRQAPGQDLKWMGWINTYSGEPRYADDFKGRFVFSLDKSVNTAYLQISSLKAEDTAVYYCARDYGRWYFDVWGQGTTVTVSS
VL: EIVLTQSPATLSLSPGERATLSCRASSSVSHMHWYQQKPGQAPRLLIYATSNLASGIPARFSGSGSGTDFTLTISSLEPEDFAVYYCQQWSSTPRTFGGGTKVEIKR
notes: Humanized heavy chain HD paired with humanized light chain LA
B14: humanized 20F3 HDLB (antibody, V domains shown)
VH: QIQLVQSGSELKKPGASVKVSCKASGYTFTNYGMNWVRQAPGQDLKWMGWINTYSGEPRYADDFKGRFVFSLDKSVNTAYLQISSLKAEDTAVYYCARDYGRWYFDVWGQGTTVTVSS
VL: EIVLTQSPATLSLSPGERATLSCRASSSVSHMHWYQQKPGQAPRPWIYATSNLASGIPARFSGSGSGTDYTLTISSLEPEDFAVYYCQQWSSTPRTFGGGTKVEIKR
notes: Humanized heavy chain HD paired with humanized light chain LB
B15: humanized 20F3 HDLC (antibody, V domains shown)
VH: QIQLVQSGSELKKPGASVKVSCKASGYTFTNYGMNWVRQAPGQDLKWMGWINTYSGEPRYADDFKGRFVFSLDKSVNTAYLQISSLKAEDTAVYYCARDYGRWYFDVWGQGTTVTVSS
VL: QIVLSQSPATLSLSPGERATLSCRASSSVSHMHWYQQKPGQAPRPWIYATSNLASGIPARFSGSGSGTDYTLTISSLEPEDFAVYYCQQWSSTPRTFGGGTKVEIKR
notes: Humanized heavy chain HD paired with humanized light chain LC
B16: humanized 20F3 HELA (antibody, V domains shown)
VH: QIQLVQSGSELKKPGASVKVSCKASGYTFTNYGMNWVKQAPGQDLKWMGWINTYSGEPRYADDFKGRFAFSLDKSVNTAYLQISSLKAEDTAVYFCARDYGRWYFDVWGQGTTVTVSS
VL: EIVLTQSPATLSLSPGERATLSCRASSSVSHMHWYQQKPGQAPRLLIYATSNLASGIPARFSGSGSGTDFTLTISSLEPEDFAVYYCQQWSSTPRTFGGGTKVEIKR
notes: Humanized heavy chain HE paired with humanized light chain LA
B17: humanized 20F3 HELB (antibody, V domains shown)
VH: QIQLVQSGSELKKPGASVKVSCKASGYTFTNYGMNWVKQAPGQDLKWMGWINTYSGEPRYADDFKGRFAFSLDKSVNTAYLQISSLKAEDTAVYFCARDYGRWYFDVWGQGTTVTVSS
VL: EIVLTQSPATLSLSPGERATLSCRASSSVSHMHWYQQKPGQAPRPWIYATSNLASGIPARFSGSGSGTDYTLTISSLEPEDFAVYYCQQWSSTPRTFGGGTKVEIKR
notes: Humanized heavy chain HE paired with humanized light chain LB
B18: humanized 20F3 HELC (antibody, V domains shown)
VH: QIQLVQSGSELKKPGASVKVSCKASGYTFTNYGMNWVKQAPGQDLKWMGWINTYSGEPRYADDFKGRFAFSLDKSVNTAYLQISSLKAEDTAVYFCARDYGRWYFDVWGQGTTVTVSS
VL: QIVLSQSPATLSLSPGERATLSCRASSSVSHMHWYQQKPGQAPRPWIYATSNLASGIPARFSGSGSGTDYTLTISSLEPEDFAVYYCQQWSSTPRTFGGGTKVEIKR
notes: Humanized heavy chain HE paired with humanized light chain LC
B19: humanized 20F3 HELD (antibody, V domains shown)
VH: QIQLVQSGSELKKPGASVKVSCKASGYTFTNYGMNWVKQAPGQDLKWMGWINTYSGEPRYADDFKGRFAFSLDKSVNTAYLQISSLKAEDTAVYFCARDYGRWYFDVWGQGTTVTVSS
VL: QIVLSQSPATLSLSPGERATMSCRASSSVSHMHWYQQKPGQAPRPWIYATSNLASGVPARFSGSGSGTDYTLTISSLEPEDFAVYYCQQWSSTPRTFGGGTKVEIKR
notes: Humanized heavy chain HE paired with humanized light chain LD
B20: murine 20F3 antibody (antibody, mouse IgG1, V domains shown)
VH: QIQLVQSGPELKKPGETVKISCKASGYTFTNYGMNWVKQAPGKDLKWMGWINTYSGEPRYADDFKGRFAFSLEKSANTAYLQINNLKNEDMATYFCARDYGRWYFDVWGTGTTVTVSS
VL: QIVLSQSPAILSASPGEKVTMTCRASSSVSHMHWYQQKPGSSPKPWIYATSNLASGVPARFSGSGSGTSYSLTISRVEAEDAATYYCQQWSSTPRTFGGGTKLEIKR
notes: also called mouse 20F3

Each binder was assayed against T1, human NTB-A (assay: competition flow cytometry on Ramos cells; competitor 5 nM mouse 20F3-Alexa Fluor 647).
Protocol: Antigen positive Ramos cells were plated at 1×10⁵ cells per well in a 96 well V-bottom plate (Thermo Scientific, Rochester, N.Y.). Fifty-fold serial dilutions of antibodies were prepared in FACs buffer (PBS+2% fetal bovine serum) and were added to the cells in duplicate. The antibody solutions were incubated with cells for 1 hour on ice, protected from light. The cells were washed twice with FACs buffer and analyzed on the LSRII flow cytometer (BD BioSciences, San Jose, Calif.). EC50 values were determined with GraphPad Prism software (La Jolla, Calif.).

Compared with B1, B2 is 29-fold higher in EC50: 5 nM for the first, 147 nM for the second.

Compared with B3, B4 is 2.2-fold higher in EC50: 12 nM for the first, 27 nM for the second. The first is the more potent here.

First: B5
Second: B6
The EC50 of the first is 5.9-fold lower: 12 nM for the first, 71 nM for the second. The first is the more potent here.

Compared with B7, B8 is 2-fold higher in EC50: 6 nM for the first, 12 nM for the second. The first is the more potent here.

Compared with B9, B10 is 6.2-fold higher in EC50: 4 nM for the first, 25 nM for the second.

Going from B11 to B12, the EC50 falls from 8 nM to 5 nM (1.6-fold).

Going from B13 to B14, the EC50 falls from 15 nM to 3 nM (5-fold).

Going from B15 to B16, the EC50 rises from 6 nM to 31 nM (5.2-fold).

First: B17
Second: B18
The EC50 of the first is 2.5-fold lower: 4 nM for the first, 10 nM for the second. The first is the more potent here.

B19 and B20 are the same in EC50: 2 nM for the first, 2 nM for the second.
